The values below come from publication PMC6191456 (Scientific Reports, 2018).

B1: ParD antitoxin of the parDE system from the broad host range plasmid RK2 (natural protein, UniProt P22995 1-83, looked up)
chain: MSRLTIDMTDQQHQSLKALAALQGKTIKQYALERLFPGDADADQAWQELKTMLGNRINDGLAGKVSTKSVGEILDEELSGDRA
notes: the construct is not described for the SPR; source: purified by a published protocol [30]
B2: ParD-ParE complex (preincubated ParD and ParE proteins) (complex)
chain 1: B1 chain
chain 2: MTAYILTAEAEADLRGIIRYTRREWGAAQVRRYIAKLEQGIARLAAGEGPFKDMSELFPALRMARCEHHYVFCLPRAGEPALVVAILHERMDLMTRLADRLKG
notes: the ParD2-ParE2 make-up is cited from earlier work and not measured here; also called ParD-ParE heterotetamer; ParDE complex; source: purified ParD (200 nM) preincubated with increasing concentrations of purified ParE; copies: 2 + 2
B3: ParE toxin of the parDE system from the broad host range plasmid RK2 (natural protein)
chain: B2 chain 2
notes: also called GST-ParE

Conditions in all cases: both partners purified
Assay [1] has as its target T1, ClpA, the ATPase unit of ClpAP protease (E. coli, UniProt P0ABH9 1-758).
T1 construct: ClpA, ATP-dependent unfoldase subunit of the ClpAP protease, E. coli; also called ClpA ATPase; source: purified by a published protocol [55]
T1 sequence (looked up): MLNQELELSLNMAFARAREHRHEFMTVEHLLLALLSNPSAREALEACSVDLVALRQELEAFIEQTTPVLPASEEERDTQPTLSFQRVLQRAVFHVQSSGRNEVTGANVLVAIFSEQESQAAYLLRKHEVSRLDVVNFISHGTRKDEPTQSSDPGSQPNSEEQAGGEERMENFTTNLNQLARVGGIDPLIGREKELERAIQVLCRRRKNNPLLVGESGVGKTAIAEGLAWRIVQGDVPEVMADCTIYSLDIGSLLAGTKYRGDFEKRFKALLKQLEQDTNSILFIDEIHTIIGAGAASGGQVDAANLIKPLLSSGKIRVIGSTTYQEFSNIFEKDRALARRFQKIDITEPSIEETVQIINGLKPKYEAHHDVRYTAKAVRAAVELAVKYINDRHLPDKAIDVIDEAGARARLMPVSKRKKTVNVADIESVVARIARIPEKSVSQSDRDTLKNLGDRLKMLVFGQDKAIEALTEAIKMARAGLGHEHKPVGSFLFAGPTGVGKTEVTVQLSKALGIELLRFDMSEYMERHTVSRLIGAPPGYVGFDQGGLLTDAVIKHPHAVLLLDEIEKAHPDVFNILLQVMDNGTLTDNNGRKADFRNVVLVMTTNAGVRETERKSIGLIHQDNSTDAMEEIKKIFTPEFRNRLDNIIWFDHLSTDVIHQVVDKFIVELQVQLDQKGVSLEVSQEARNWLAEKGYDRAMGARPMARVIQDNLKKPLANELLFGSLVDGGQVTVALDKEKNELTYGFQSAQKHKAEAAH
The assay is described as follows: SPR; BIAcore 2000; ParD or ParE immobilised on a CM5 chip, ClpA injected; HBS-EP buffer with 10 mM magnesium acetate and 2 mM ATP; flow 15 µl/min. For orientation: In SPR one partner is held on a chip, and binding of the other changes the refractive index at the surface.

Assay [2] has as its target B3. The assay can be described thus: SPR; BIAcore 2000; ClpA immobilised on a CM5 chip; ParD (200 nM) injected to pre-form the ClpA-ParD complex, then ParE (200 nM) injected; ParD or buffer as controls; HBS-EP buffer with 10 mM magnesium acetate and 2 mM ATP.
Assay [3] concerns the target T1, ClpA, the ATPase unit of ClpAP protease. The assay is described as follows: SPR; BIAcore 2000; ClpA immobilised on a CM5 chip; mixture of ParD (200 nM) preincubated with increasing concentrations of ParE injected; HBS-EP buffer with 10 mM magnesium acetate and 2 mM ATP.
Assay [4] addresses T2, pre-formed ClpA-ParD complex (E. coli | plasmid RK2, UniProt P0ABH9;P22995).
T2 construct: also called ParD-ClpA complex; source: formed on the sensor chip: purified ParD (200 nM) injected onto immobilised purified ClpA
T2 sequence 1: T1 sequence (looked up)
T2 sequence 2: B1 chain
The assay is described as follows: SPR; BIAcore 2000; ClpA immobilised on a CM5 chip; ParD (200 nM) injected to pre-form the ClpA-ParD complex, then ParE (200 nM) injected; ParD or buffer as controls; HBS-EP buffer with 10 mM magnesium acetate and 2 mM ATP.

Regarding B1, the binding result in assay [1] and in assay [2] was “binds” throughout.
Take B2: the binding result in assay [3] is reported as “binds”.
In the case of B3, the binding result in assay [4] is recorded as “binds”.
